Publication PMC10287957, “RecF protein targeting to postreplication (daughter strand) gaps I: DNA binding by RecF and RecFR”

What was measured:
RecF [1] = molecular target: T1, RecF (Escherichia coli, UniProt P0A7H0 1-357); test: fluorescence anisotropy; conditions: 30 mM Tris-Cl pH 7.5, 100 mM NaCl, 10 mM MgCl2, 0.1 mM EDTA, 1 mM DTT, 30% glycerol, 0.1 mg/ml BSA, 10 nM DNA, 25 C, 3 mM ATP and 5 uM RecR where indicated
T1 sequence: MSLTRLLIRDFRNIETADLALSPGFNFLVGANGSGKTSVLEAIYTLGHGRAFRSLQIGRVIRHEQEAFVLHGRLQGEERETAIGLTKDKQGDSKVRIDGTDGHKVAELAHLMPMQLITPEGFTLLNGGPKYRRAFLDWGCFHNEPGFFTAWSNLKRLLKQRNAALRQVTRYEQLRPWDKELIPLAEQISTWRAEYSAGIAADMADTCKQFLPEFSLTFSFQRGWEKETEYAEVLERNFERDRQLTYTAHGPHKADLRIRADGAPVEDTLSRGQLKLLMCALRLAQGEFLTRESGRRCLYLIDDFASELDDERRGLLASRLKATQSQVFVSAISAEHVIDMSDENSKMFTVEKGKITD

[2] = molecular target: RecF;RecR (Escherichia coli;Escherichia coli) (UniProt P0A7H0); test: fluorescence anisotropy; conditions: 3 mM ATP, 5 uM RecR, 30 mM Tris-Cl pH 7.5, 100 mM NaCl, 10 mM MgCl2, 0.1 mM EDTA, 1 mM DTT, 30% glycerol, 0.1 mg/ml BSA, 10 nM DNA, 25 C, 3 mM ATP and 5 uM RecR where indicated
RecF [3] = molecular target: T1, RecF; test: fluorescence anisotropy; 3 mM ATP; 30 mM Tris-Cl pH 7.5, 100 mM NaCl, 10 mM MgCl2, 0.1 mM EDTA, 1 mM DTT, 30% glycerol, 0.1 mg/ml BSA, 10 nM DNA, 25 C; 3 mM ATP and 5 uM RecR where indicated; conditions: protein: recombinant; chain copies: 2; label: 5' FAM

Molecule 31mer dsDNA 5FAM has a Kd (RecF [1]) of 0.108 µM.

40mer dsDNA 5FAM gave a Kd (RecF [1]) of 0.175 µM.

With iFAM ss 50mer (dephosphorylated) the Kd (RecF [1]) was 0.112 µM.

iFAM css (circular 50mer) gave a Kd (RecF [1]; circularized by ligation) of 0.0978 µM and a Kd ([2]; circularized by ligation) of 68.4 nM.

40mer ssDNA 5FAM (random sequence) gave a Kd (RecF [1]) of 0.134 µM.

With 20mer ssDNA 5FAM the Kd (RecF [1]; 3 mM ATP, h 1.1) was 0.64 µM.

In the case of 20mer dsDNA 5FAM, the Kd (RecF [1]; 3 mM ATP, h 2.4) is reported as 0.067 µM and the Kd [2] is reported as 109 nM.

Work on iFAM ss_5P 50mer yielded a Kd (RecF [1]; 5' phosphate) of 0.116 µM and a Kd (RecF [1]; no ATP, Kd nearly in the uM range, h 1, 5' phosphate) of 1 µM.

Molecule TTTTTTTTTTTTTTTTTTTTTTTTTTTTTTT (ssDNA) [31 polydT ssDNA 5FAM] has a Kd (RecF [3]) of 93 nM.
